Results as given in patent US20190241648A1 (STATEN BIOTECHNOLOGY B V, published 2019).
Ends that are not written are not given here.

Tests used:
Experiment in all cases: peptide microarray
ApoC3 peptide … V71M = ApoC3 peptide … V71M (human, cyclic constrained)
Description: (§1) F64 was completely variable.
(§2) Pre: staining of one of the ApoC3 peptide microarrays was done with the secondary antibody goat anti-human IgG (Fe) DyLight680 (1:5000) and control antibody mouse monoclonal anti-HA (12CA5) DyLight800 (1:2000) to investigate background interactions of the secondary antibody with the antigen-derived peptides that could interfere with the main assays. Subsequent incubation of other ApoC3 peptide microarrays with antibody samples was followed by staining with secondary and control antibodies as well as read-out at scanning intensities of 7/7 (red/green). The additional HA peptides framing the peptide arrays were stained as internal quality control to confirm the assay quality and the peptide microarray integrity.

ApoC3 peptide … D59N = biological target: T1, ApoC3 peptide … D59N (human, cyclic constrained)
T1 peptide: NKFSEFWDLDPEV
Description: as §1, §2

ApoC3 peptide … E70R = biological target: T2, ApoC3 peptide … E70R (human, not fully specified (bridges); also: cyclic constrained)
T2 peptide: DKFSEFWDLDPRV
Description: as §1, §2

ApoC3 peptide … D68P = biological target: T3, ApoC3 peptide … D68P (human, cyclic constrained)
T3 peptide: DKFSEFWDLPPEV
Description: as §1, §2

ApoC3 peptide … S62G = ApoC3 peptide … S62G (human, cyclic constrained)
Description: as §1, §2

ApoC3 peptide … E70M = biological target: T4, ApoC3 peptide … E70M (human, not fully specified (bridges); also: cyclic constrained)
T4 peptide: DKFSEFWDLDPMV
Description: as §1, §2

ApoC3 peptide … P69Q = ApoC3 peptide … P69Q (human, cyclic constrained)
Description: as §1, §2

ApoC3 peptide … D68I = biological target: T5, ApoC3 peptide … D68I (human, cyclic constrained)
T5 peptide: DKFSEFWDLIPEV
Description: as §1, §2

ApoC3 peptide … W65A = ApoC3 peptide … W65A (human, cyclic constrained)
Description: as §1, §2

ApoC3 peptide … W65H = biological target: T6, ApoC3 peptide … W65H (human, not fully specified (bridges); also: cyclic constrained, ring type and places not given here)
T6 peptide: DKFSEFHDLDPEV
Description: as §1, §2

ApoC3 peptide … F61E = biological target: T7, ApoC3 peptide … F61E (human, cyclic constrained)
T7 peptide: DKESEFWDLDPEV
Description: as §1, §2

ApoC3 peptide … S62L = ApoC3 peptide … S62L (human, cyclic constrained)
Description: as §1, §2

ApoC3 peptide … L67G = biological target: T8, ApoC3 peptide … L67G (human, not fully specified (bridges); also: cyclic constrained)
T8 peptide: DKFSEFWDGDPEV
Description: as §1, §2

ApoC3 peptide … K60A = biological target: T9, ApoC3 peptide … K60A (human, not fully specified (bridges); also: cyclic constrained)
T9 peptide: DAFSEFWDLDPEV
Description: as §1, §2

ApoC3 peptide … K60P = biological target: T10, ApoC3 peptide … K60P (human, not fully specified (bridges); also: cyclic constrained)
T10 peptide: DPFSEFWDLDPEV
Description: as §1, §2

ApoC3 peptide … W65M = biological target: T11, ApoC3 peptide … W65M (human, not fully specified (bridges); also: cyclic constrained, ring type and places not given here)
T11 peptide: DKFSEFMDLDPEV
Description: as §1, §2

ApoC3 peptide … D68A = biological target: T12, ApoC3 peptide … D68A (human, not fully specified (bridges); also: cyclic constrained)
T12 peptide: DKFSEFWDLAPEV
Description: as §1, §2

ApoC3 peptide … P69T = ApoC3 peptide … P69T (human, cyclic constrained)
Description: as §1, §2

ApoC3 peptide … L67S = biological target: T13, ApoC3 peptide … L67S (human, not fully specified (bridges); also: cyclic constrained)
T13 peptide: DKFSEFWDSDPEV
Description: as §1, §2

ApoC3 peptide … D66P = biological target: T14, ApoC3 peptide … D66P (human, not fully specified (bridges); also: cyclic constrained)
T14 peptide: DKFSEFWPLDPEV
Description: as §1, §2

ApoC3 peptide … K60C = biological target: T15, ApoC3 peptide … K60C (human, not fully specified (bridges); also: cyclic constrained)
T15 peptide: DCFSEFWDLDPEV
Description: as §1, §2

ApoC3 peptide … E70N = biological target: T16, ApoC3 peptide … E70N (human, not fully specified (bridges); also: cyclic constrained)
T16 peptide: DKFSEFWDLDPNV
Description: as §1, §2

ApoC3 peptide … K60Q = biological target: T17, ApoC3 peptide … K60Q (human, not fully specified (bridges); also: cyclic constrained)
T17 peptide: DQFSEFWDLDPEV
Description: as §1, §2

ApoC3 peptide … F61V = biological target: T18, ApoC3 peptide … F61V (human, not fully specified (bridges); also: cyclic constrained)
T18 peptide: DKVSEFWDLDPEV
Description: as §1, §2

ApoC3 peptide … D68F = biological target: T19, ApoC3 peptide … D68F (human, cyclic constrained)
T19 peptide: DKFSEFWDLFPEV
Description: as §1, §2

ApoC3 peptide … V71N = ApoC3 peptide … V71N (human, cyclic constrained)
Description: as §1, §2

ApoC3 peptide … F61L = biological target: T20, ApoC3 peptide … F61L (human, not fully specified (bridges); also: cyclic constrained)
T20 peptide: DKLSEFWDLDPEV
Description: as §1, §2

ApoC3 peptide … D68H = biological target: T21, ApoC3 peptide … D68H (human, cyclic constrained)
T21 peptide: DKFSEFWDLHPEV
Description: as §1, §2

ApoC3 peptide … K60S = biological target: T22, ApoC3 peptide … K60S (human, not fully specified (bridges); also: cyclic constrained)
T22 peptide: DSFSEFWDLDPEV
Description: as §1, §2

ApoC3 peptide … E63S = ApoC3 peptide … E63S (human, cyclic constrained)
Description: as §1, §2

ApoC3 peptide … D59W = biological target: T23, ApoC3 peptide … D59W (human, not fully specified (bridges); also: cyclic constrained)
T23 peptide: WKFSEFWDLDPEV
Description: as §1, §2

ApoC3 peptide … F64R = biological target: T24, ApoC3 peptide … F64R (human, not fully specified (bridges); also: cyclic constrained)
T24 peptide: DKFSERWDLDPEV
Description: as §1, §2

ApoC3 peptide … E70W = biological target: T25, ApoC3 peptide … E70W (human, cyclic constrained)
T25 peptide: DKFSEFWDLDPWV
Description: as §1, §2

ApoC3 peptide … F61P = biological target: T26, ApoC3 peptide … F61P (human, not fully specified (bridges); also: cyclic constrained)
T26 peptide: DKPSEFWDLDPEV
Description: as §1, §2

ApoC3 peptide … F64A = biological target: T27, ApoC3 peptide … F64A (human, not fully specified (bridges); also: cyclic constrained)
T27 peptide: DKFSEAWDLDPEV
Description: as §1, §2

ApoC3 peptide … K60D = biological target: T28, ApoC3 peptide … K60D (human, not fully specified (bridges); also: cyclic constrained)
T28 peptide: DDFSEFWDLDPEV
Description: as §1, §2

% of binding to wild-type peptide (ApoC3 peptide … V71M): 105% | % of binding to wild-type peptide (ApoC3 peptide … D59N): 77.5% | % of binding to wild-type peptide (ApoC3 peptide … E70R): 0% | % of binding to wild-type peptide (ApoC3 peptide … D68P): 0% | % of binding to wild-type peptide (ApoC3 peptide … S62G): 53.9% | % of binding to wild-type peptide (ApoC3 peptide … E70M): 2.34% | % of binding to wild-type peptide (ApoC3 peptide … P69Q): 28.2% | % of binding to wild-type peptide (ApoC3 peptide … D68I): 0% | % of binding to wild-type peptide (ApoC3 peptide … W65A): 26.4% | % of binding to wild-type peptide (ApoC3 peptide … W65H): 17% | % of binding to wild-type peptide (ApoC3 peptide … F61E): 83.9% | % of binding to wild-type peptide (ApoC3 peptide … S62L): 81% | % of binding to wild-type peptide (ApoC3 peptide … L67G): 0.6% | % of binding to wild-type peptide (ApoC3 peptide … K60A): 120% | % of binding to wild-type peptide (ApoC3 peptide … K60P): 157% | % of binding to wild-type peptide (ApoC3 peptide … W65M): 19.1% | % of binding to wild-type peptide (ApoC3 peptide … D68A): 0% | % of binding to wild-type peptide (ApoC3 peptide … P69T): 118% | % of binding to wild-type peptide (ApoC3 peptide … L67S): 26.5% | % of binding to wild-type peptide (ApoC3 peptide … D66P): 0% | % of binding to wild-type peptide (ApoC3 peptide … K60C): 84% | % of binding to wild-type peptide (ApoC3 peptide … E70N): 0.15% | % of binding to wild-type peptide (ApoC3 peptide … K60Q): 140% | % of binding to wild-type peptide (ApoC3 peptide … F61V): 47% | % of binding to wild-type peptide (ApoC3 peptide … D68F): 0% | % of binding to wild-type peptide (ApoC3 peptide … V71N): 98.7% | % of binding to wild-type peptide (ApoC3 peptide … F61L): 61.3% | % of binding to wild-type peptide (ApoC3 peptide … D68H): 0% | % of binding to wild-type peptide (ApoC3 peptide … K60S): 156% | % of binding to wild-type peptide (ApoC3 peptide … E63S): 35.2% | % of binding to wild-type peptide (ApoC3 peptide … D59W): 78.1% | % of binding to wild-type peptide (ApoC3 peptide … F64R): 79.1% | % of binding to wild-type peptide (ApoC3 peptide … E70W): 2.84% | % of binding to wild-type peptide (ApoC3 peptide … F61P): 79% | % of binding to wild-type peptide (ApoC3 peptide … F64A): 166% | % of binding to wild-type peptide (ApoC3 peptide … K60D): 151%
B1: anti-ApoC3 antibody 6A6 (antibody, V domains shown)
VH: EVQLVESGGGLVQPGGSLRLSCAASGFTFSSYAGRWVRQVPGKGLEWVSSINAGGGSTSYADSVKGRFTISRDNAKNTLYLQMNSLKPEDTAKYYCTQNSYRYWGQGTRVAVSS
VL: DVVLTQTPGSLSVVPGESASISCKASQSLIHTDGKTYLYWLLQKPGQRPQLLIYQVSSHESGVPDRFTGSGSGTDFTLKISGVKAEDAGVYYCAQATYNPRTFGQGTKLEIK
notes: it was detected with goat anti-human IgG (Fc); also called mAb 6A6; llama antibody 6A6
